From patent US12060408B2, “Screening assays, modulators and modulation of activation of Receptor for Advanced Glycation End-products (RAGE)” (Monash University, priority 2017, dated 2024)
Ends that are not written are not given here.

How the values were obtained:
CXCR3 = biological target: T1, CXCR3 (Homo sapiens, UniProt P49682); test: Receptor-HIT BRET, β-arr2/Venus with RAGE/Rluc8 and CXCR3; assay type: cell-based; details: in the presence of CXCR3
T1 construct: expressed in transfected cells; host or cells: HEK293FT, transient
T1 sequence (P49682 whole entry, species assumed): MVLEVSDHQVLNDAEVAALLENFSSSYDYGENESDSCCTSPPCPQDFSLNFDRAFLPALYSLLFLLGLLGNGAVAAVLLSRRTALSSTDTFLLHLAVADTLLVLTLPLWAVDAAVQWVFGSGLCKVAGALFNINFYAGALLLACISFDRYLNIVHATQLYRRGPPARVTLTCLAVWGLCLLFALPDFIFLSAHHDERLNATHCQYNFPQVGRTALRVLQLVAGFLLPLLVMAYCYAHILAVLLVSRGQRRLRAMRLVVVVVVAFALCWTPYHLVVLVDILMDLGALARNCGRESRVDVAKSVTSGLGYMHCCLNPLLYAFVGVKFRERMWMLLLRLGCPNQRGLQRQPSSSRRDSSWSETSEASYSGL
T1 sequence (P32121 whole entry partner, species assumed): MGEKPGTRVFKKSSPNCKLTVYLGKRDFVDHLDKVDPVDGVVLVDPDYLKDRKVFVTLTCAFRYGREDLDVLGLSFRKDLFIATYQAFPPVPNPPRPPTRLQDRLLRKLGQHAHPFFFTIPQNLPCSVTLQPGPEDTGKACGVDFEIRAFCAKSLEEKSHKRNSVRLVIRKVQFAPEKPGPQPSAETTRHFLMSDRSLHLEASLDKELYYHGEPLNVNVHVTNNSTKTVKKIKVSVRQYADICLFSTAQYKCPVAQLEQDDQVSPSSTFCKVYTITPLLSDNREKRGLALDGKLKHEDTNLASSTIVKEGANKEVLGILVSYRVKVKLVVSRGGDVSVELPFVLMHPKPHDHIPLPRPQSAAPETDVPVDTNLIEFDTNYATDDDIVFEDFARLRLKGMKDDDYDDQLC
Source text: (§1) Bioluminescence Resonance Energy Transfer (BRET)
(§2) BRET is an established technology for studying protein-protein proximity in live cells, particularly involving GPCRs (Pfleger and Eidne, 2006). One protein of interest was linked to a bioluminescent donor enzyme, Rluc8, a variant of Renilla luciferase, and a second linked to an acceptor fluorophore, Venus, a variant of green fluorescent protein. If in close proximity (<10 nm), energy resulting from the rapid oxidation of a cell-permeable coelenterazine substrate by the donor can transfer to the acceptor, which in turn fluoresces at a longer characteristic wavelength.
(§3) Plasmids were transiently co-expressed in human embryonic kidney (HEK) 293FT cells and BRET measurements taken at 37° C. using a POLARstar Omega or LUMIstar plate reader (BMG Labtech, Mornington, Victoria, Australia) with 460-490 nm (‘donor emission’) and 520-550 nm (‘acceptor emission’) filters, or a VICTOR Light plate reader (Perkin Elmer, Glen Waverley, Victoria, Australia) with 400-475 nm (‘donor emission’) and 520-540 nm (‘acceptor emission’) filters, or a CLARIOstar plate reader (BMG Labtech, Mornington, Victoria, Australia) with 420-480 nm (‘donor emission’) and 520-620 nm (‘acceptor emission’) filters. […]
(§4) For BRET kinetic assays, the final pre-treatment reading is presented at the zero time point (time of ligand/vehicle addition). […]

TIRAP = TIRAP (Homo sapiens, UniProt P58753); details: Putranto et al., 2013; cited from earlier work
TIRAP, sequence (P58753 whole entry, species assumed): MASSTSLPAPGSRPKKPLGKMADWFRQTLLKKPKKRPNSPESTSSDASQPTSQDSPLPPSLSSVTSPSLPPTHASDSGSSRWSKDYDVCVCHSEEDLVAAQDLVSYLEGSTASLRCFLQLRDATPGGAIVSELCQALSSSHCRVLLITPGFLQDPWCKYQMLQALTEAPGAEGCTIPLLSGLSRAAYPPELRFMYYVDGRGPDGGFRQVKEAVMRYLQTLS

[1] = tested on: RAGE ligand-dependent signalling; details: Putranto et al., 2013; cited from earlier work
U-87MG cells = details: Putranto et al., 2013; cited from earlier work
CCR1 and RAGE = biological target: T2, CCR1 and RAGE (Homo sapiens, UniProt P32246+Q15109); test: Ligand-induced BRET, Rluc8-tagged GPCR and RAGE/Venus; assay type: cell-based; details: mCherry-RAGE338-361 co-expressed, FIG. 21F
T2 construct: expressed in transfected cells; host or cells: HEK293FT
T2 sequence (P32246 whole entry): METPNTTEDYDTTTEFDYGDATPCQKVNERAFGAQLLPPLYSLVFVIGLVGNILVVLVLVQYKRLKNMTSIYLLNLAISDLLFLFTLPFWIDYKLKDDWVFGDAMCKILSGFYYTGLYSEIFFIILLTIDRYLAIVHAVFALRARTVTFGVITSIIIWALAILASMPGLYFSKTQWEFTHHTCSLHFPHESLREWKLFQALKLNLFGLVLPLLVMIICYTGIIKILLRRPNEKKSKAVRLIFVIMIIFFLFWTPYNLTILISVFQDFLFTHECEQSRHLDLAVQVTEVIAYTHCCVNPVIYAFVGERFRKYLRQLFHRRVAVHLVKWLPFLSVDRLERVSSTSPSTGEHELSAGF
T2 sequence (Q15109 23-404): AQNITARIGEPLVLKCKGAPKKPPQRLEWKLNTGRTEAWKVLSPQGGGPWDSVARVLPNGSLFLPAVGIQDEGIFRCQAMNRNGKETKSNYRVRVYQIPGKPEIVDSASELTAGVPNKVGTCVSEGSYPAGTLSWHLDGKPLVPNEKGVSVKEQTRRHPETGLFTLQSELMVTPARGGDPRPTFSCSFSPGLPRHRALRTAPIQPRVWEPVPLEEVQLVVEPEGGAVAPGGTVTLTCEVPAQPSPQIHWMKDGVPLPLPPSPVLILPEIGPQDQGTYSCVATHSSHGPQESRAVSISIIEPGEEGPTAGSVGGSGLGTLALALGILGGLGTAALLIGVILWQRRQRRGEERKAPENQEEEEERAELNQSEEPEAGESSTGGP

[2] = biological target: T3, sphingosine 1-phosphate receptor 1 (S1PR1) and RAGE (Homo sapiens, UniProt P21453+Q15109); test: as above; assay type: cell-based; details: mCherry-RAGE338-361 co-expressed, FIG. 21F
T3 construct: expressed in transfected cells; host or cells: HEK293FT
T3 sequence (P21453 whole entry): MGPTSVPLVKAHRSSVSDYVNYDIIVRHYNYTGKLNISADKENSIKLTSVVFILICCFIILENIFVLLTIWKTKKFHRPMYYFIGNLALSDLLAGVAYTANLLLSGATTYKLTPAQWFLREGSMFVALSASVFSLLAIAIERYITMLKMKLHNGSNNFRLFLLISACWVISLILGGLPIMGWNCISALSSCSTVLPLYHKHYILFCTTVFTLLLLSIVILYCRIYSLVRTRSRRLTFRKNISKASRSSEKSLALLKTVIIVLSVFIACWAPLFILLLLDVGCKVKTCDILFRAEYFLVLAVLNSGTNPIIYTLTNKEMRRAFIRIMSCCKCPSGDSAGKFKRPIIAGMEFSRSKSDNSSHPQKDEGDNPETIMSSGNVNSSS
T3 sequence (Q15109 23-404): as the sequence (Q15109 23-404) above

CXCR4 and RAGE = biological target: T4, CXCR4 and RAGE (Homo sapiens, UniProt P61073+Q15109); test: as above; assay type: cell-based; details: mCherry-RAGE338-361 co-expressed, FIG. 21F
T4 construct: expressed in transfected cells; host or cells: HEK293FT

CXCR5 and RAGE = biological target: T5, CXCR5 and RAGE (Homo sapiens, UniProt P32302+Q15109); test: as above; assay type: cell-based; details: mCherry-RAGE338-361 co-expressed, FIG. 21F
T5 construct: expressed in transfected cells; host or cells: HEK293FT

[3] = biological target: T6, bradykinin receptor 2 (B2R) and RAGE (Homo sapiens, UniProt P30411+Q15109); test: as above; assay type: cell-based; details: mCherry-RAGE338-361 co-expressed, FIG. 21F
T6 construct: expressed in transfected cells; host or cells: HEK293FT
T6 sequence (P30411 whole entry): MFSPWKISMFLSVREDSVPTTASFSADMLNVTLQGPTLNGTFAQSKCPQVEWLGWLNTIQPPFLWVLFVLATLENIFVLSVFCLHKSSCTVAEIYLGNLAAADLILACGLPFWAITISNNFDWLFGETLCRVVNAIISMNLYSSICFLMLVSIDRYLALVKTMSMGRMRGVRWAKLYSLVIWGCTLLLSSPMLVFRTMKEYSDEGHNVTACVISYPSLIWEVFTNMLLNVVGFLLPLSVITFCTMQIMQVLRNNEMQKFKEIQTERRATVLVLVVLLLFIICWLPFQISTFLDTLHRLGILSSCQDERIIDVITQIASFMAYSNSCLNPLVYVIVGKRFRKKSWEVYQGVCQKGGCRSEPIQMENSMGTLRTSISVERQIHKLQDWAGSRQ
T6 sequence (Q15109 23-404): as the sequence (Q15109 23-404) above

CCR9 and RAGE = biological target: T7, CCR9 and RAGE (Homo sapiens, UniProt P51686+Q15109); test: as above; assay type: cell-based; details: mCherry-RAGE338-361 co-expressed, FIG. 21F
T7 construct: expressed in transfected cells; host or cells: HEK293FT
T7 sequence (P51686 whole entry): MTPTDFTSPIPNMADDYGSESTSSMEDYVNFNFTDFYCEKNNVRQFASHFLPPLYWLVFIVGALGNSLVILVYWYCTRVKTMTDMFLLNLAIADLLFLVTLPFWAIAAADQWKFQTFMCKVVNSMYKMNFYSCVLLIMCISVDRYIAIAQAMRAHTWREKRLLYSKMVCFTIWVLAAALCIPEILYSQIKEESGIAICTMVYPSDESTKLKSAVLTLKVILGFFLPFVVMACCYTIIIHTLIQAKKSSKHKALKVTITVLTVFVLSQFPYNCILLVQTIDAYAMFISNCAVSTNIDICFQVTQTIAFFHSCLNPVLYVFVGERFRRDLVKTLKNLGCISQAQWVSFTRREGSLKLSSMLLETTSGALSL
T7 sequence (Q15109 23-404): as the sequence (Q15109 23-404) above

CCR6 and RAGE = biological target: T8, CCR6 and RAGE (Homo sapiens, UniProt P51684+Q15109); test: as above; assay type: cell-based; details: mCherry-RAGE338-361 co-expressed, FIG. 21F
T8 construct: expressed in transfected cells; host or cells: HEK293FT

AT1R and RAGE = biological target: T9, AT1R and RAGE (Homo sapiens, UniProt P30556+Q15109); test: BRET between AT1R/Rluc8 and RAGE/Venus in HEK293FT cells; assay type: cell-based
T9 construct: expressed in transfected cells; host or cells: HEK293FT
T9 sequence (Q15109 23-404, one chain of several): as the sequence (Q15109 23-404) above

[4] = biological target: T10, adrenergic α2B receptor and RAGE (Homo sapiens, UniProt P18089+Q15109); test: Ligand-induced BRET, Rluc8-tagged GPCR and RAGE/Venus; assay type: cell-based; details: mCherry-RAGE338-361 co-expressed, FIG. 21F
T10 construct: expressed in transfected cells; host or cells: HEK293FT

CCR2 and RAGE = biological target: T11, CCR2 and RAGE (Homo sapiens, UniProt P41597+Q15109); test: as above; assay type: cell-based; details: mCherry-RAGE338-361 co-expressed, FIG. 21F
T11 construct: expressed in transfected cells; host or cells: HEK293FT
T11 sequence (P41597 whole entry): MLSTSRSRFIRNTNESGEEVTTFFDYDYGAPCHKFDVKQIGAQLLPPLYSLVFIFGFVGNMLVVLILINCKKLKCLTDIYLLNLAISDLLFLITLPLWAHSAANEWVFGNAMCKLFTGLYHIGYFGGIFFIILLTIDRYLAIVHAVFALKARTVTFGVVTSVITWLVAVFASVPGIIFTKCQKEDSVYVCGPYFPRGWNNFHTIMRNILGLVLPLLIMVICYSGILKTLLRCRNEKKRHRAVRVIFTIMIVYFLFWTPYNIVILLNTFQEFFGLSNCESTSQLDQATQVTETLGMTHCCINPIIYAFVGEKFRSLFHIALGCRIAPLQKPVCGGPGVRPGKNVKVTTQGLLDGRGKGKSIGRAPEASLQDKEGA
T11 sequence (Q15109 23-404): as the sequence (Q15109 23-404) above

[5] = tested on: thyrotropin-releasing hormone receptor 1 (TRHR1) and RAGE; test: as above; assay type: cell-based; details: mCherry-RAGE338-361 co-expressed, FIG. 21F
[6] = biological target: T12, vasopressin receptor 2 (V2R) and RAGE (Homo sapiens, UniProt P30518+Q15109); test: as above; assay type: cell-based; details: mCherry-RAGE338-361 co-expressed, FIG. 21F
T12 construct: expressed in transfected cells; host or cells: HEK293FT

[7] = biological target: T13, adenosine A1 receptor (ADORA1) and RAGE (Homo sapiens, UniProt P30542+Q15109); test: as above; assay type: cell-based; details: mCherry-RAGE338-361 co-expressed, FIG. 21F
T13 construct: expressed in transfected cells; host or cells: HEK293FT
T13 sequence (P30542 whole entry): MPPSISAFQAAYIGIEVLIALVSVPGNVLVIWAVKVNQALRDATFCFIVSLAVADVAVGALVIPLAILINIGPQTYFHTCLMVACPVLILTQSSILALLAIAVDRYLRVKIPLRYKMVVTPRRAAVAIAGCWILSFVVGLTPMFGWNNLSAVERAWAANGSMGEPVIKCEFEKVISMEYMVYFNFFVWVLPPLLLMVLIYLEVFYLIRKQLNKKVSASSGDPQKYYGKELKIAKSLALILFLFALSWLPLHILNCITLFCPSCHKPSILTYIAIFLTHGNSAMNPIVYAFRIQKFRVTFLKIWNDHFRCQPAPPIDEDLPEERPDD
T13 sequence (Q15109 23-404): as the sequence (Q15109 23-404) above

CCR4 and RAGE = biological target: T14, CCR4 and RAGE (Homo sapiens, UniProt P51679+Q15109); test: as above; assay type: cell-based; details: mCherry-RAGE338-361 co-expressed, FIG. 21F
T14 construct: expressed in transfected cells; host or cells: HEK293FT
T14 sequence (P51679 whole entry): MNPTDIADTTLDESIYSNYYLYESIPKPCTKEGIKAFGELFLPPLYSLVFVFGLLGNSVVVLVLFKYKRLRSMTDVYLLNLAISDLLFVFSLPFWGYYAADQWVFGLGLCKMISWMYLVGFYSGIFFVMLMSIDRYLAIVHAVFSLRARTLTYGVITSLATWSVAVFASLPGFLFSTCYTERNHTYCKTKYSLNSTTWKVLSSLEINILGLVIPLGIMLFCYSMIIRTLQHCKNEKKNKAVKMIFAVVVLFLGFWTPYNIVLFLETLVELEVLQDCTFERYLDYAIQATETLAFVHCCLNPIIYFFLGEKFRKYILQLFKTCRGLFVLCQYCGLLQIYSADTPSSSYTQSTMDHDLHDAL
T14 sequence (Q15109 23-404): as the sequence (Q15109 23-404) above

[8] = biological target: T15, orexin receptor 2 and RAGE (Homo sapiens, UniProt O43614+Q15109); test: as above; assay type: cell-based; details: mCherry-RAGE338-361 co-expressed, FIG. 21F
T15 construct: expressed in transfected cells; host or cells: HEK293FT

[9] = biological target: T16, vasopressin receptor 1A (V1aR) and RAGE (Homo sapiens, UniProt P37288+Q15109); test: as above; assay type: cell-based; details: mCherry-RAGE338-361 co-expressed, FIG. 21F
T16 construct: expressed in transfected cells; host or cells: HEK293FT
T16 sequence (P37288 whole entry): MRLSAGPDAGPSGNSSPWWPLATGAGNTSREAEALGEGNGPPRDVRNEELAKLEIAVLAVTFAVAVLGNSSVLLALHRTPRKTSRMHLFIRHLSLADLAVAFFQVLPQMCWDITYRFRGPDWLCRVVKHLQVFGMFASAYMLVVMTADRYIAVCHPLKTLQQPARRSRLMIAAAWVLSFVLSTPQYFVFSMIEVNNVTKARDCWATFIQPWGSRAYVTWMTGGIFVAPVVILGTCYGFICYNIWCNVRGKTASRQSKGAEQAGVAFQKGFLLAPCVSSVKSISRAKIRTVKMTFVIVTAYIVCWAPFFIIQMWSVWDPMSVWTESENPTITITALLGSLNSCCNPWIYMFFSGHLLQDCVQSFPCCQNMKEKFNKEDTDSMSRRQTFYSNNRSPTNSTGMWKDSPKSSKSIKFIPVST
T16 sequence (Q15109 23-404): as the sequence (Q15109 23-404) above

[10] = biological target: T17, neuropeptide Y1 receptor (NPY1R) and RAGE (Homo sapiens, UniProt P25929+Q15109); test: as above; assay type: cell-based; details: mCherry-RAGE338-361 co-expressed, FIG. 21F
T17 construct: expressed in transfected cells; host or cells: HEK293FT

AT1 = biological target: T18, AT1 (Homo sapiens, UniProt P30556); test: BRET between mCherry-RAGE338-361 and Nluc-AT1; assay type: cell-based; parameters: expressed in transfected cells; host or cells: HEK293FT, transient; details: FIG. 21A
T18 sequence (P30556 1-359): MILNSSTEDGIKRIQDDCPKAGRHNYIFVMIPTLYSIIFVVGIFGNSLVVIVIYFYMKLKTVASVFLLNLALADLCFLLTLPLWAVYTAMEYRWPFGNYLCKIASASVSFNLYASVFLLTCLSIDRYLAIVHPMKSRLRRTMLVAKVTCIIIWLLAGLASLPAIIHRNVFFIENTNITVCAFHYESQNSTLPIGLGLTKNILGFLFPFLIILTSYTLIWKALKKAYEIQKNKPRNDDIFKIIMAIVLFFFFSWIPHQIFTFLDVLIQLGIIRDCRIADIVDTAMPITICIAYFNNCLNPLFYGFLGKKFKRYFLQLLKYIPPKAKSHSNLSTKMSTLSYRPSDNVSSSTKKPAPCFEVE

[11] = biological target: T19, vasopressin receptor 1B (V1bR) and RAGE (Homo sapiens, UniProt P47901+Q15109); test: Ligand-induced BRET, Rluc8-tagged GPCR and RAGE/Venus; assay type: cell-based; details: mCherry-RAGE338-361 co-expressed, FIG. 21F
T19 construct: expressed in transfected cells; host or cells: HEK293FT

CXCR2 and RAGE = biological target: T20, CXCR2 and RAGE (Homo sapiens, UniProt P25025+Q15109); test: as above; assay type: cell-based; details: mCherry-RAGE338-361 co-expressed, FIG. 21F
T20 construct: expressed in transfected cells; host or cells: HEK293FT

CCR7 and RAGE = biological target: T21, CCR7 and RAGE (Homo sapiens, UniProt P32248+Q15109); test: as above; assay type: cell-based; details: mCherry-RAGE338-361 co-expressed, FIG. 21F
T21 construct: expressed in transfected cells; host or cells: HEK293FT

CCR5 and RAGE = biological target: T22, CCR5 and RAGE (Homo sapiens, UniProt P51681+Q15109); test: as above; assay type: cell-based; details: mCherry-RAGE338-361 co-expressed, FIG. 21F
T22 construct: expressed in transfected cells; host or cells: HEK293FT

CCR10 = biological target: T23, CCR10 (Homo sapiens, UniProt P46092); test: Receptor-HIT BRET, β-arr2/Venus with RAGE/Rluc8 and CCR10; assay type: cell-based; details: in the presence of CCR10
T23 construct: expressed in transfected cells; host or cells: HEK293FT, transient
Source text: as §1, §2, §3, §4

CXCL11: chemokine ligand used to activate CXCR3
recruitment of β-arr2/Venus proximal to RAGE/Rluc8 (CXCR3): Lack of

S391A-RAGE387-395: fragment of RAGE cytosolic tail of Putranto et al., 2013 (ELNQAEEPE; cytosolic tail peptide; UniProt Q15109 387-395, looked up, variant S391A)
binding to TIRAP (TIRAP): did not show any appreciable binding | attenuation of apoptosis induced by RAGE ligand S100B [1]: did not attenuate

S391E-RAGE387-395: fragment of RAGE cytosolic tail of Putranto et al., 2013, mimicking the phosphorylated state of RAGE (ELNQEEEPE; cytosolic tail peptide; UniProt Q15109 387-395, looked up, variant S391E)
inhibition of particular aspects of RAGE ligand-dependent signalling (apoptosis, cell migration and invasion) [1]: inhibitor | growth of U-87MG cells (intracellular adenosine triphosphate content) (U-87MG cells): not significantly affected

mCherry-RAGE338-361: the RAGE TMD with an extracellular juxta-membrane fragment linked to mCherry (LGTLALALGILGGLGTAALLIGVI; also: linked to mCherry)
inhibition of the change in the ligand-induced BRET signal between the Rluc8-tagged GPCR and RAGE/Venus (CCR1 and RAGE): particularly clear inhibition | inhibition of the change in the ligand-induced BRET signal between the Rluc8-tagged GPCR and RAGE/Venus [2]: particularly clear inhibition | inhibition of the change in the ligand-induced BRET signal between the Rluc8-tagged GPCR and RAGE/Venus (CXCR4 and RAGE): particularly clear inhibition | inhibition of the change in the ligand-induced BRET signal between the Rluc8-tagged GPCR and RAGE/Venus (CXCR5 and RAGE): small yet discernible inhibition | inhibition of the change in the ligand-induced BRET signal between the Rluc8-tagged GPCR and RAGE/Venus [3]: particularly clear inhibition | inhibition of the change in the ligand-induced BRET signal between the Rluc8-tagged GPCR and RAGE/Venus (CCR9 and RAGE): particularly clear inhibition | inhibition of the change in the ligand-induced BRET signal between the Rluc8-tagged GPCR and RAGE/Venus (CCR6 and RAGE): particularly clear inhibition | inhibition of the change in the ligand-induced BRET signal between the Rluc8-tagged GPCR and RAGE/Venus (AT1R and RAGE; angiotensin receptor AT1 (AT1R), mCherry-RAGE338-361 co-expressed, FIG. 21F): particularly clear inhibition | BRET between full length RAGE and AT1 (saturation and kinetic assays) (AT1R and RAGE; overexpression of mCherry-RAGE338-361, FIG. 21B, 21C): modulates BRET between full length RAGE and AT1 in a dose dependent fashion | inhibition of the change in the ligand-induced BRET signal between the Rluc8-tagged GPCR and RAGE/Venus [4]: particularly clear inhibition | inhibition of the change in the ligand-induced BRET signal between the Rluc8-tagged GPCR and RAGE/Venus (CCR2 and RAGE): particularly clear inhibition | inhibition of the change in the ligand-induced BRET signal between the Rluc8-tagged GPCR and RAGE/Venus [5]: particularly clear inhibition | inhibition of the change in the ligand-induced BRET signal between the Rluc8-tagged GPCR and RAGE/Venus [6]: particularly clear inhibition | inhibition of the change in the ligand-induced BRET signal between the Rluc8-tagged GPCR and RAGE/Venus [7]: small yet discernible inhibition | inhibition of the change in the ligand-induced BRET signal between the Rluc8-tagged GPCR and RAGE/Venus (CCR4 and RAGE): particularly clear inhibition | inhibition of the change in the ligand-induced BRET signal between the Rluc8-tagged GPCR and RAGE/Venus [8]: particularly clear inhibition | inhibition of the change in the ligand-induced BRET signal between the Rluc8-tagged GPCR and RAGE/Venus [9]: particularly clear inhibition | inhibition of the change in the ligand-induced BRET signal between the Rluc8-tagged GPCR and RAGE/Venus [10]: particularly clear inhibition | BRET signal with extracellularly luciferase-tagged AT1 receptor (Nluc-AT1) (AT1): BRET signal is observed | inhibition of the change in the ligand-induced BRET signal between the Rluc8-tagged GPCR and RAGE/Venus [11]: particularly clear inhibition | inhibition of the change in the ligand-induced BRET signal between the Rluc8-tagged GPCR and RAGE/Venus (CXCR2 and RAGE): particularly clear inhibition | inhibition of the change in the ligand-induced BRET signal between the Rluc8-tagged GPCR and RAGE/Venus (CCR7 and RAGE): small yet discernible inhibition | inhibition of the change in the ligand-induced BRET signal between the Rluc8-tagged GPCR and RAGE/Venus (CCR5 and RAGE): particularly clear inhibition

B1: CCL27: chemokine ligand used to activate CCR10 (protein)
chain: FLLPPSTACCTQLYRKPLSDKLLRKVIQVELQEADGDCHLQAFVLHLAQRSICIHPQNPSLSQWFEHQERKLHGTLPKLNFGMLRKMG
recruitment of β-arr2/Venus proximal to RAGE/Rluc8 (CCR10): Lack of
